Data published in the supplement of paper PMC10567573.

B1: ZNF449 (parent)
chain: EPHKCPECGKRFLRSSDLYRHQRL

Variants of: B1
Experiment: protein stability index of a GFP-peptide fusion (GPS, HEK-293T) (PSI 1-6); higher = more stable
Settings: c terminus: a fixed tail appended
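Also: lentivirally expressed fusions sorted by FACS into six bins by GFP to DsRed ratio, PSI derived from sequencing read proportions per bin multiplied by bin number.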

| Variant | protein stability index |
| --- | --- |
| EPHKCPECGKWFLRSSDLYRHQRL | 4.26 |
| EPHKCPECGKTFLRSSDLYRHQRL | 5.01 |
| EPHKCPECGKLFLRSSDLYRHQRL | 4.57 |
| EPHKCPECGKCFLRSSDLYRHQRL | 4.31 |
| EPHKCPECGKQFLRSSDLYRHQRL | 4.44 |
| EPHKCPECGKIFLRSSDLYRHQRL | 4.63 |
| EPHKCPECGKSFLRSSDLYRHQRL | 5.13 |
| EPHKCPECGKPFLRSSDLYRHQRL | 3.68 |
| EPHKCPECGKYFLRSSDLYRHQRL | 4.39 |
| EPHKCPECGKVFLRSSDLYRHQRL | 4.57 |
| EPHKCPECGKAFLRSSDLYRHQRL | 4.71 |
| EPHKCPECGKKFLRSSDLYRHQRL | 4.16 |
| EPHKCPECGKDFLRSSDLYRHQRL | 4.27 |
| EPHKCPECGKNFLRSSDLYRHQRL | 4.24 |
| EPHKCPECGKFFLRSSDLYRHQRL | 4.41 |
| EPHKCPECGKEFLRSSDLYRHQRL | 4.84 |
| EPHKCPECGKMFLRSSDLYRHQRL | 4.26 |
| EPHKCPECGKHFLRSSDLYRHQRL | 4.07 |
| EPHKCPECGKGFLRSSDLYRHQRL | 4 |
| EPHKCPECGYRFLRSSDLYRHQRL | 2.5 |
| EPHKCPECGWRFLRSSDLYRHQRL | 2.13 |
| EPHKCPECGKRWLRSSDLYRHQRL | 1.93 |
| EPHKCPECGKRNLRSSDLYRHQRL | 2.06 |
| EPHKCPECGKRALRSSDLYRHQRL | 1.86 |

| Variant | protein stability index |
| --- | --- |
| EPHKCPECGKRRLRSSDLYRHQRL | 2.15 |
| EPHKCPECGKRCLRSSDLYRHQRL | 1.67 |
| EPHKCPECGKRGLRSSDLYRHQRL | 2.12 |
| EPHKCPECGKRTLRSSDLYRHQRL | 2.32 |
| EPHKCPECGKRMLRSSDLYRHQRL | 2.45 |
| EPHKCPECGKRSLRSSDLYRHQRL | 1.86 |
| EPHKCPECGKRHLRSSDLYRHQRL | 3.73 |
| EPHKCPECGKRKLRSSDLYRHQRL | 2.88 |
| EPHKCPECGKRVLRSSDLYRHQRL | 1.95 |
| EPHKCPECGKRQLRSSDLYRHQRL | 2.03 |
| EPHKCPECGKRLLRSSDLYRHQRL | 2.54 |
| EPHKCPECGKRPLRSSDLYRHQRL | 2.51 |
| EPHKCPECGKRDLRSSDLYRHQRL | 2.13 |
| EPHKCPECGKRYLRSSDLYRHQRL | 2.72 |
| EPHKCPECGKRILRSSDLYRHQRL | 2.1 |
| EPHKCPECGKRELRSSDLYRHQRL | 2.34 |
| EPHKCPECGKRFLRSSDGYRHQRL | 3.05 |
| EPHKCPECGKRFLRSSDEYRHQRL | 2.92 |
| EPHKCPECGKRFLRSSDYYRHQRL | 2.97 |
| EPHKCPECGKRFLRSSDPYRHQRL | 2.37 |
| EPHKCPECGKRFLRSSDMYRHQRL | 3.46 |
| EPHKCPECGKRFLRSSDIYRHQRL | 2.52 |
| EPHKCPECGKRFLRSSDHYRHQRL | 3.5 |
| EPHKCPECGKRFLRSSDAYRHQRL | 3.08 |

| Variant | protein stability index |
| --- | --- |
| EPHKCPECGKRFLRSSDFYRHQRL | 3.44 |
| EPHKCPECGKRFLRSSDDYRHQRL | 2.87 |
| EPHKCPECGKRFLRSSDWYRHQRL | 3.37 |
| EPHKCPECGKRFLRSSDSYRHQRL | 3.15 |
| EPHKCPECGKRFLRSSDVYRHQRL | 3.12 |
| EPHKCPECGKRFLRSSDCYRHQRL | 3.68 |
| EPHKCPECGKRFLRSSDKYRHQRL | 2.74 |
| EPHKCPECGKRFLRSSDRYRHQRL | 3.3 |
| EPHKCPECGKRFLRSSDQYRHQRL | 2.46 |
| EPHKCPECGKRFLRSSDNYRHQRL | 2.67 |
| EPHKCPECGKRFLRSSDTYRHQRL | 2.48 |
| EPHKCPECGKRFLGSSDLYRHQRL | 2.33 |
| EPHKCPECGKRFLVSSDLYRHQRL | 3.2 |
| EPHKCPECGKRFLLSSDLYRHQRL | 3.51 |
| EPHKCPECGKRFLPSSDLYRHQRL | 2.2 |
| EPHKCPECGKRFLKSSDLYRHQRL | 4.11 |
| EPHKCPECGKRFLSSSDLYRHQRL | 4.61 |
| EPHKCPECGKRFLTSSDLYRHQRL | 4.61 |
| EPHKCPECGKRFLCSSDLYRHQRL | 3.86 |
| EPHKCPECGKRFLQSSDLYRHQRL | 3.36 |
| EPHKCPECGKRFLMSSDLYRHQRL | 3.61 |
| EPHKCPECGKRFLWSSDLYRHQRL | 2.75 |
| EPHKCPECGKRFLASSDLYRHQRL | 3.89 |
| EPHKCPECGKRFLNSSDLYRHQRL | 4.78 |

| Variant | protein stability index |
| --- | --- |
| EPHKCPECGKRFLHSSDLYRHQRL | 3.97 |
| EPHKCPECGKRFLFSSDLYRHQRL | 3.76 |
| EPHKCPECGKRFLESSDLYRHQRL | 3.84 |
| EPHKCPECGKRFLISSDLYRHQRL | 2.95 |
| EPHKCPECGKRFLYSSDLYRHQRL | 3.59 |
| EPHKCPECGKRFLDSSDLYRHQRL | 4.29 |
| EPHKCPECGKRFLRSSDLARHQRL | 4.05 |
| EPHKCPECGKRFLRSSDLWRHQRL | 2.86 |
| EPHKCPECGKRFLRSSDLFRHQRL | 3.96 |
| EPHKCPECGKRFLRSSDLTRHQRL | 3.6 |
| EPHKCPECGKRFLRSSDLKRHQRL | 3.92 |
| EPHKCPECGKRFLRSSDLGRHQRL | 2.92 |
| EPHKCPECGKRFLRSSDLHRHQRL | 3.99 |
| EPHKCPECGKRFLRSSDLERHQRL | 4.63 |
| EPHKCPECGKRFLRSSDLVRHQRL | 3.89 |
| EPHKCPECGKRFLRSSDLIRHQRL | 3.86 |
| EPHKCPECGKRFLRSSDLCRHQRL | 4.7 |
| EPHKCPECGKRFLRSSDLSRHQRL | 3.68 |
| EPHKCPECGKRFLRSSDLDRHQRL | 4.68 |
| EPHKCPECGKRFLRSSDLPRHQRL | 2.62 |
| EPHKCPECGKRFLRSSDLRRHQRL | 3.55 |
| EPHKCPECGKRFLRSSDLLRHQRL | 4.04 |
